Assay results published in PMC6113430.

Key:
[1] = molecular target: human PD‐L2 (hPD‐L2), soluble (human) (UniProt Q9BQ51); experiment: SPR
[2] = molecular target: human PD‐L1 (hPD‐L1), soluble, biotinylated (human) (UniProt Q9NZQ7); experiment: SPR
[3] = molecular target: human PD‐L1 on the surface of tumor cells (human) (UniProt Q9NZQ7); experiment: flow cytometry on cells
[4] = molecular target: human PD‐L2 on mature dendritic cells (human) (UniProt Q9BQ51); experiment: flow cytometry on cells

| Substance | Kd [1] [nM] | T1/2 [1] [s] | Kd [2] [nM] | EC50 [3] [nM] | T1/2 [2] [s] | koff [2] [s⁻¹] | koff [1] [s⁻¹] | percent reduction of the MFI of anti-PD-L2 Ab (M1H18) at 1.0 × 10^-5 mol/L L5B7 [4] [%] |
| --- | --- | --- | --- | --- | --- | --- | --- | --- |
| soluble human PD‐1 (hPD‐1) (domain or fragment) | 1050 | 2.68 | 2650 | 4860 |  |  |  |  |
| L4C11, PD‐1 variant with a single‐site mutation from glycine to valine (G124V) (designed binder) |  |  | 93.7 |  | 8.25 | 0.121 |  |  |
| hPD‐1 A132I point mutant (domain or fragment) |  |  | 9.9 |  |  |  |  |  |
| hPD‐1 with the combined mutation of G124V and A132I (domain or fragment) |  |  | 0.97 |  |  |  |  |  |
| L5B7, high‐affinity PD‐1 variant (G124S, K131Y, A132I) (designed binder) | 13.7 | 78.1 | 0.687 | 2.9 |  | 0.002 | 0.0128 | > 40 |
